From PMC3288673

Biological target: T1, Rev-Erbα (UniProt P20393 1-614)
T1 sequence: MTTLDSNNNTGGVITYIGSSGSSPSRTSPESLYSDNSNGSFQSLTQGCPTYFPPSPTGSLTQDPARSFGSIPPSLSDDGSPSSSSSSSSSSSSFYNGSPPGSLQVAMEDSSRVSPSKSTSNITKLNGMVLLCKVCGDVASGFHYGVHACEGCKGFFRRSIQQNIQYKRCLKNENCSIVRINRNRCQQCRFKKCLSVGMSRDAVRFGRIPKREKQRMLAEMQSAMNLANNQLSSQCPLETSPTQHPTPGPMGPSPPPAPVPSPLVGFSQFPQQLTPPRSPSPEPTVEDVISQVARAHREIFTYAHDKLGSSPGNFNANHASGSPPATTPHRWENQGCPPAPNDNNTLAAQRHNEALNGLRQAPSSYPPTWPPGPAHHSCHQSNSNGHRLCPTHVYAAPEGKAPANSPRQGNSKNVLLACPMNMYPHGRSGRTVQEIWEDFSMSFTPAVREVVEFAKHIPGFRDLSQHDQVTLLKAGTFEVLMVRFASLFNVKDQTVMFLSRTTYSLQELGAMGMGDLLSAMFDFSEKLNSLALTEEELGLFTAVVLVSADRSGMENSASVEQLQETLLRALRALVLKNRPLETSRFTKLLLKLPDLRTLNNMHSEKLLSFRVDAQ
Assay: EMSA

B1: RevDR2 (dsDNA)
DNA 1: AGCTCCAACTAGGTCACTAGGTCAAAGGGA
DNA 2: TCGATCCCTTTGACCTAGTGACCTAGTTGG
Does B1 bind?
Result: binds
